Source: article PMC10952462, “Commentary on “The road to reliable peptide assays is paved with good guidelines”” (Clinical Endocrinology, 2023)

Tests used:
[1] = collection tubes containing EDTA; ref 3 (Toräng et al.); cited from earlier work
Excerpt: (§1) Maurer et al. have quoted Toräng et al.'s study on PYY's major cleaving sites but disregarded the outcome from their study of the inhibitory effects of EDTA on metalloendoproteases, neuroendopeptidase (NEP) and Meprin β.[3] […] We have studied the stability of both PYY species with our inhibitor mix containing DPP4 inhibitor and Aprotinin, where we spiked PYY1 –36 and PYY3 –36 into plasma EDTA and LH from three different volunteers.

[2] = Stability of PYY1-36 and PYY3-36 in EDTA and lithium heparin plasma (LC-MS/MS assay validation); assay type: in vitro ADME, human; details: for degradation in plasma at 4°C / degradation in plasma at room temperature / mean percentage difference in concentration, overall and between all tested sample sets: EDTA or LH plasma; for degradation in plasma at 4°C: 3 h time-point at 4°C; for degradation in plasma at 4°C / degradation in plasma at room temperature: with or without inhibitors (DPP4 inhibitor and Aprotinin), spiked samples and healthy volunteer samples, triplicate QCs (low and high); for degradation in plasma at room temperature: 3 h time-point at room temperature (19°C); for mean percentage difference in concentration, overall and between all tested sample sets: presence versus absence of inhibitors, 3 h at 19°C or 4°C, mean of injections of triplicate QCs (low and high); for differences in concentrations with only DPP4 inhibitor and Aprotinin present: spiked into plasma EDTA and LH from three different volunteers, inhibitor mix of DPP4 inhibitor and Aprotinin
Description: We have verified stability of PYY1 –36 and PYY3 –36 at preanalytical, analytical and post‐analytical stages of the assay. At preanalytical stage the whole blood is collected in prechilled lithium heparin (LH) or ethylenediaminetetraacetic acid (EDTA) tubes and containing evaluated in‐house inhibitors (DPP4 inhibitor and Aprotinin). The sample is centrifuged immediately at 4°C and flash‐frozen on dry ice or transferred immediately to a −80°C freezer. The samples are kept at −80°C until being thawed once only for analysis.
We deemed our protease inhibitors sufficient for maintaining stability of PYY1 –36 and PYY3 –36 and inhibiting peptide degradation.
as §1
Furthermore, we have verified the stability of both species of PYY in both EDTA and LH plasma under the following conditions: (1) freezing and thawing up to a second cycle; (2) incubation at 4°C for up to 4 h; (3) long‐term storage (6 months) at −80°C; (4) postextraction, during storage in the autosampler at 4°C. We have verified the stability of our stock and working stock solutions for up to 7 months, stored at […]. We would state that it is a matter of standard operating procedure that we store these solutions at −80°C and discard these at the end of the day of the run after thawing, affording a safety margin. Last, our assay has been validated both with plasma‐based calibrants and QCs, and cross‐validated in a surrogate matrix (20BMA). We also validated matrix effects (ME) in spiked plasma EDTA and plasma LH. Mean percentage ME for PYY1 –36 was 100.7% and for PYY3 –36, 111% in plasma LH. EDTA ME results were reported previously.[2]

Substance | risk of PYY degradation in collected blood [1] | degradation in plasma at 4°C [2] | degradation in plasma at room temperature [2] | mean percentage difference in concentration, overall and between all tested sample sets [2] | differences in concentrations with only DPP4 inhibitor and Aprotinin present [2]
PYY: peptide YY, species not specified, as studied by Toräng et al. | small | – | – | – | –
peptide YY1 –36 [PYY1 –36] | – | no degradation | no degradation | ≤ 10% | did not detect any significant differences
peptide YY3‐36 [PYY3 –36] | – | no degradation | no degradation | ≤ 10% | did not detect any significant differences
